B1: Tripartite motif-containing protein 49C, residues 87 to 133; numbered along this chain, P0CI26 (parent)
chain: SSEEQMCGTHRETKKIFCEVDRSLLCLLCSSSQEHRYHRHRPIEWAA
B2: Tyrosine-protein kinase BTK, residues 215 to 273; numbered along this chain, Q06187 (parent)
chain: ELKKVVALYDYMPMNANDLQLRKGDEYFILEESNLPWWRARDKNGQEGYIPSNYVTEAE

Variants of: B1
Assay: abundance fitness (aPCA) (normalised: wild type 0, dead -1); higher = more abundant; growth selection in yeast, the domain comes from the species named
Conditions: Homo sapiens

Abundance fitness, by site and new letter:
H40: L -0.551, M -0.633, Y -0.888, T -0.849, I -0.893, V -0.439, C -0.623, Q -0.129, S -0.298, K -0.908, R -0.563, N -1.27, P -0.767, G -0.468, D -0.083, W -0.608, F -0.709
R41: A -0.084, P -0.364, V -0.607, Y -0.659, D 0.496, C -0.609, T -0.292, K -0.402, W -0.413, S 0.011, G -0.34, Q 0.09, F -0.29, M -0.39, E -0.197
A47: C -0.591, S -0.565, V 0.142, H -0.036, N -0.007, D 0.438, R 0.04, W -0.144, P 0.019, M -0.025, E -0.375, G -0.078, L -0.493
E44: M -0.488, G -0.181, S -0.089, C -0.525, N -0.065, W -0.598, A -0.411, Q -0.489, I -0.359, L -0.52, K -0.298, Y -0.652, V -0.603, F -0.82, H -0.738, T -0.2, R -0.507, P -0.449
P42: V -0.393, Q -0.081, F -0.289, A 0.022, H -0.264, S -0.122, K 0.11, L -0.324, I -0.377, R -0.221, Y -0.26, W -0.671, M -0.366, T -0.065, C -0.049, N -0.103, G -0.007
R39: W -0.314, E 0.203, C -0.375, A -0.103, I 0.162, H -0.131, T 0.02, P -0.246, F -0.356, D 0.257, V -0.092, Y -0.328, M -0.155, S 0.083, N 0.363, Q 0.045, L -0.172, G -0.253
W45: Y 0.256, M 0.255, H 0.361, R 0.111, K 0.518, T 0.345, P 0.346, I 0.12, D 0.479, A 0.282, Q 0.224, C 0.18, F 0.153, L 0.122, S 0.292, G 0.236
A46: H -0.276, V -0.203, E -0.076, Q -0.085, D 0.09, T 0.194, K -0.368, G 0.056, F -0.184, S 0.056, W -0.156, P 0.2, N -0.124, L -0.039, R -0.249, M -0.008, I -0.863
I43: S -0.011, A 0.405, E 0.24, W -0.395, R -0.385, K 0.352, V 0.023, T -0.54, P -0.524, F 0.594, G -0.215, Y 0.335, M -0.37
H38: V -0.851, K -0.607, S -0.691, M -0.717, N -0.781, R -0.591, W -0.708, Y -0.711, T -0.599, Q -0.562

Variants of: B2
Assay: as above
Conditions: Homo sapiens

Abundance fitness: each site, then its substitutions
V6: K -0.023, F -0.073, E -0.135, G -0.636, W -0.067, T -0.017, H -0.154, I -0.028, C -0.103, R -0.093, M -0.1, P -0.796, L -0.052, S -0.19, Q -0.025
Y9: L 0.056, S 0.053, C 0.006, K 0.073, R 0.057, V 0.031, Q 0.098, M 0.053, D -0.007, W -0.053, F 0.012, P -0.663, E 0.001, N 0.07, G -0.018, A 0.062
D10: F -0.758, C -0.783, N -0.102, G -0.168
E1: T -0.288, L -0.074, D -0.103, V -0.074, F -0.094, C -0.252, I -0.106, Y -0.062, P -0.305, K -0.035, A -0.172, N -0.012, Q -0.121, W -0.088, R -0.15, H -0.174
M12: E 0.017, G -0.136, D -0.04, I 0.036, F -0.062, A 0.017, H 0.006, C 0.032
K3: Q -0.293, M 0, H -0.224, D -0.22, I -0.257, L -0.102, E -0.309, T -0.117, F -0.038, A -0.225, G -0.227, C -0.223, R -0.065, S -0.135, Y -0.205, V -0.107, W -0.253, P -0.234, N -0.112
A7: K -0.955, G -0.364, N -1.11, F -0.599, D -0.909, T -0.801, L -1, I -0.966, H -0.804, P -0.654, Y -1.06, C -0.203, Q -0.828, S -0.142, E -0.813, W -1.03, M -0.837, V -0.681, R -1.04
Y11: C -0.202, G -0.709, V -0.298, H -0.155, N -0.383, P -0.704, R 0.032, Q -0.316, E -0.562, D -0.72, T -0.182, F 0.005, W 0.017, M -0.099, I -0.245, S -0.161, L -0.094
L2: R -0.075, N 0.012, F 0.011, C -0.177, H -0.167, A -0.093, E -0.126, S -0.075, Q -0.013, V -0.116, Y -0.036, I -0.089, W -0.088, M -0.055, P -0.136, G -0.018, T -0.161, K -0.095
V5: G -0.425, T -0.323, L -0.244, C -0.213, K -0.288, M -0.134, N -0.839, S -0.404, P -0.755, E -0.708, I -0.189, H -0.335, Q -0.329, Y -0.113, F -0.052
L8: E -0.094, P -0.657, Q -0.093, T -0.019, D -0.137, K -0.003, M -0.014, C -0.04, G -0.338, N -0.118, F -0.222, S -0.107, A -0.124, V -0.055, R -0.017
K4: S -0.1, A -0.168, D -0.287, R -0.072, Y -0.285, Q -0.088, M -0.133, C -0.225, H -0.322, P -0.15, L -0.089, N -0.339, E -0.135, I -0.033, T -0.036, V -0.079, G -0.357, W -0.334
